In the supplement of paper PMC12042874:
± gives the uncertainty stated by the source.

Experiment: amyloid nucleation score (Sup35N fusion, yeast selection) (log enrichment); library NNK3; higher = more nucleation; inactive = no reads after selection
Procedure, shortened: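 For the nucleation score, DiMSum gave the log enrichment of output over input reads, centred on the mode score of non-aggregating sequences. Psi-negative yeast expressing Sup35N fused to peptides of 20 random codons were induced with 100 μM copper sulfate for 24 hours and grown 7 days at 30°C on medium lacking adenine and uracil. Input and output plasmid inserts were Illumina-sequenced, and sequences with under 100 input reads were excluded.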

Substance | amyloid nucleation score
KYNTCSEV | inactive
KYVAKFSSLILTFL | inactive
KYVYFMSVFCEVCSRAHRVV | 1.24 ± 0.1
LAGIMCCEKVYCGPRDGVLG | 1.69 ± 0.12
LAIVRRCWNLRYAGYEI | inactive
LAIYTVRSQFKVMCGVQSIR | 0.85 ± 0.16
LAPFV | inactive
LAQMVNGRITDHYTLFRSRT | inactive
LASQELLFVRIRDSLAKCGV | inactive
LATLLTMWRGSLRYNPLKRL | -0.354 ± 0.48
LAVFKFDRSLIWDTTVRVFH | inactive
LAVTFVHRLCWILLFWD | inactive
LCEEYYSINTWFRYVNVDIL | inactive
LCFNR | inactive
LCISVPNFSLAFLSLGWLCK | inactive
LCITIVSRWVVGVFHQMFYT | -0.219 ± 0.68
LCIWNWFLSSNRMLRKLAD | inactive
LCKCLLIEFCYVVK | 0.772 ± 0.12
LCLGFVHPVIPFWIAML | inactive
LCLLYIGTSTIYGHECPDKT | inactive
LCNSVAYPDSGTVRLLKREL | 0.005 ± 0.6
LCNSVRNGNYYTGYGVTLYV | inactive
LCSYGVGWD | inactive
LCTSADYWSHKNRGRAYSRR | inactive

Substance | amyloid nucleation score
LCVIVTAVKGFTVPWHNFFL | inactive
LDAYLWNNCMYVYHLEPYSW | inactive
LDGTGCDGPLARKNCGRNAV | inactive
LDLIRY | inactive
LDLLMGV | inactive
LDLSLMHGMFTYFGVHMMMP | inactive
LDMPCILLYLRSNWGRFG | inactive
LDMSFSGYTRVLARSISTDA | 0.474 ± 0.65
LDMSLACPRG | -0.051 ± 0.77
LDNVKDVRYWIVCTQWWNRV | inactive
LDSAYRTVDGSICTTSYREH | inactive
LDSGFICMTELIGVVPH | inactive
LDWCAYWVSVISRWN | inactive
LEDSLPQIPTQIVGWWFLKM | inactive
LENLLGMWVSCAWLSGSHFV | inactive
LEREDGVHWLMEEWVWCVDW | inactive
LESFWFMTGFF | inactive
LEYCVNL | inactive
LEYDRTFKILFCGGSGWHYS | inactive
LEYKYVGLSKFDALIRQWFL | inactive
LEYLKV | inactive
LFANTYVV | inactive
LFCAV | inactive
LFDLRDNVCSRVSRNYTAGA | inactive

Substance | amyloid nucleation score
LFDMLMHTSPC | inactive
LFFYRMYDGTWKGDLYIASE | inactive
LFGTFQWVDWGLFIL | inactive
LFHIQNESGVSYIKWFSLSI | 0.553 ± 0.27
LFLFQFRYGSWGFRGYMVGR | 0.837 ± 0.27
LFLMLG | inactive
LFLVIYYVFMYVA | inactive
LFMEYWSVATCRNSGIVFIV | inactive
LFMMCGHMEYAIVKNRVDKS | 0.016 ± 0.46
LFMSPVKSAWRIVCGNKFSQ | -0.642 ± 1.1
LFNGSSFITCSRTLGVL | inactive
LFNYVSMPANSSSRYTGMLL | inactive
LFPLMKQYLARGFSQDIRSA | inactive
LFPSADLATITG | inactive
LFRTDFMQTLLCHTIQLLYP | inactive
LFSICINICLY | 1.79 ± 0.092
LFSLIVNTRLETLEFKGQIP | 1.02 ± 0.11
LFSNNNCLNIWVWLV | 2.19 ± 0.081
LFSQCSLITHG | inactive
LFTLTWSWQLKGFFYYHGYV | inactive
LFTYVPDFSGLTLSTICCLV | 0.458 ± 0.35
LFVLGPDRLDCAQCKLLRDR | inactive
LFVLIDYNRYP | inactive
LFVWRSMNRFFQVYVLWSAE | inactive

Substance | amyloid nucleation score
LFVYSWKRFDGNWNKLSWNR | inactive
LFWYTAH | -0.361 ± 0.38
LFYGSTCIGTDM | -1.07 ± 1.1
LFYYSRTVESYLSNVCLVIR | inactive
LGDYSLTE | inactive
LGNKGNEMPLRSKVKRWFLL | inactive
LGNTCKIDWRISYHMTPSDI | inactive
LGQRWHVMLVLMSVYIF | inactive
LGRAQYETQFSATSVRLEPG | -0.142 ± 0.82
LGTTSYRV | inactive
LGVEVSMMTWCRMSSSMLMT | inactive
LGVLMLQSTRFAAWVSSLGR | inactive
LGWGHACMKFVDHCVRSSRS | inactive
LGYWKFSIRHFEGGRLQIHF | 2.7 ± 0.056
LHAMPLEGFLHLCPKLTCHQ | 0.676 ± 0.18
LHCSVSSQTELVPTENRGGW | inactive
LHHSVG | inactive
LHKTTMYFRKISLRRFEMLL | inactive
LHLAMSRTLSHSPHSCV | inactive
LHPSRLDGT | 0.411 ± 0.25
LHRCSLSKNDSAQSMMLTGC | inactive
LHRLRKWRRLY | inactive
LHSIFDSVHSCMRFWMIWSE | inactive
LHSVGVPMAPVKGTMWERER | inactive

Substance | amyloid nucleation score
LHTMGMSVGGMAMNKIDCPN | inactive
LIASLRIWPRESMPR | inactive
LICYQDLRLLAPWVQG | inactive
LIFALRFSLSVSCSCAKCFR | inactive
LIFLTMVSLLFGDQRRSGVQ | 0.221 ± 0.54
LIGDNRTGEVALYRFGSRMG | inactive
LIICLYSTAGRGIRWSDSTA | inactive
LIIHIFLVWDWSSIERRSIS | inactive
LILYSLGNNTHEMIYLWSNR | inactive
LIQPKSR | inactive
LIRCLVRSNVEFNNMGWWSS | inactive
LIRHFNKRVTSCNVVLLYNG | inactive
LIRRSWSYCVLVSCTDGSHS | inactive
LISMYHHCSGHLVAQDTVSV | inactive
LIWIVVGLSCYSTRL | 1.09 ± 0.13
LIYRHLGYCYNRGCWLVSWH | inactive
LIYRSLPFSCLSSGV | inactive
LKCSR | inactive
LKDNPNSLWC | -0.224 ± 1.1
LKGVKCVHSCWELPR | -0.117 ± 1.1
LKGVYSERPNRDAG | inactive
LKIRKFLTFKFSSALIIVVC | inactive
LKKYCMYMSSY | inactive
LKLSSC | 0.739 ± 0.17

Substance | amyloid nucleation score
LKLYDGSFAFLKCTSFMFNG | 1.19 ± 0.17
LKSCGMRVSKCCFIDICELC | 0.022 ± 0.75
LKSDI | inactive
LKSSPNPFMNNGFIISAILG | inactive
LKSWDTIWVEDNYSLC | -0.148 ± 0.81
LKVRLALLCRSEQRSPSTEV | inactive
LLAMPNQRWGTTLLYVQDWF | inactive
LLCMTPNIVNSRLMTYYPCH | inactive
LLCVDSTKTMIAYD | inactive
LLDCFKLYSSHLAEGRTTVT | inactive
LLDNFY | inactive
LLEIDVGISRCLGVTSETFW | inactive
LLFML | inactive
LLHPYARVDMRVQ | inactive
LLHTQMALGSLCVGYKIWLG | inactive
LLHVVFNTFLYRLEPEYTSK | inactive
LLIQNV | inactive
LLISDMGFNIVVLMTVSCFY | 0.049 ± 0.29
LLIVNWVFRILVYRTTRGLR | inactive
LLKGFSCFLNR | inactive
LLKLRIQIKVWTS | inactive
LLLDNITLGLWEFIRYRCGW | inactive
LLLIKPRKVPLIEVCGWETV | inactive
LLLTSVL | inactive

Substance | amyloid nucleation score
LLMDYYFVGLKLVPFAVPKV | 1.22 ± 0.15
LLMKMHDAIAG | inactive
LLMSLL | 0.09 ± 0.88
LLNDCYIRNKGLPHDERVWG | inactive
LLQSLGGKESNLGK | inactive
LLRRLYLTLACPFYLMHTKC | inactive
LLRSYFVVAC | inactive
LLSIYCY | inactive
LLSLIT | inactive
LLSTTSAVAGGMACVSRNMW | inactive
LLTFALIL | 0.462 ± 0.19
LLTFSH | inactive
LLTVSLPMDGST | inactive
LLTWMIG | 0.714 ± 0.29
LLVFSTGHARRFFSSYESRG | 1.28 ± 0.09
LLVLLVFTALY | inactive
LLVMSQVKYRHMSAAPA | inactive
LLWLKL | inactive
